Earlier results, collected in patent publication US20250009771A1, “PHARMACEUTICAL COMPOSITION FOR TREATING COLORECTAL CANCER, INCLUDING TUMOR-TARGETED LIPOSOMES CONTAINING PLATYCODIN D2” (INDUSTRY-UNIVERSITY COOPERATION FOUNDATION HANYANG …, priority 2023, published 2025).

Legend:
[1] = slightly acidic pH; cited from earlier work
BCL-XL = biological target: T1, BCL-XL (Homo sapiens, UniProt Q07817); conditions: cited from earlier work
T1 construct: host or cells: adenomas and tumor organoids (endogenous protein)
T1 sequence (Q07817 whole entry, species assumed): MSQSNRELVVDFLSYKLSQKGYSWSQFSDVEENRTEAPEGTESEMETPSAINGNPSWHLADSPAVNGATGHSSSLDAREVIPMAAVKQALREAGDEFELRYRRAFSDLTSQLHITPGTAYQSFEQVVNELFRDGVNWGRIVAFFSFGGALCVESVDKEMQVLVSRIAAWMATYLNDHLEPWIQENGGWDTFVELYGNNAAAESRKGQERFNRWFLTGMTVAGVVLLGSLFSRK

Compound | pK of insertion into the cell membrane [1] | clonogenic potential of adenomas and tumor organoids (BCL-XL)
GLAGLAGLLGLEGLLGLPLGLLEGLWLGLELEGN [ATRAM, pH-responsive acidity-triggered rational membrane peptide] | 6.5 | –
CN(C)CC#Cc1ccc(OCCCc2sc(N3CCc4cccc(C(=O)Nc5nc6ccccc6s5)c4C3)nc2C(=O)O)c(F)c1 [A-1155463] | – | significantly impaired
